Measured values taken from US20240391987A1 (ALAMAB THERAPEUTICS, published 2024).

Key:
[1] = target: T1, Cx43 hemichannels of mouse osteocytes (MLO-Y4 cells) (mouse, UniProt P23242 2-382); test: cell-based or functional assay
[2] = target: T2, Cx43 hemichannels of primary human osteocytes (human, UniProt P17302 2-382); test: cell-based or functional assay
[3] = target: T2, Cx43 hemichannels of primary human …; test: cell ELISA on primary human osteocytes
[4] = target: T1, Cx43 hemichannels of mouse osteocytes …; test: cell ELISA on mouse osteocytes (MOL-Y4)

T1 sequence (P23242 2-382): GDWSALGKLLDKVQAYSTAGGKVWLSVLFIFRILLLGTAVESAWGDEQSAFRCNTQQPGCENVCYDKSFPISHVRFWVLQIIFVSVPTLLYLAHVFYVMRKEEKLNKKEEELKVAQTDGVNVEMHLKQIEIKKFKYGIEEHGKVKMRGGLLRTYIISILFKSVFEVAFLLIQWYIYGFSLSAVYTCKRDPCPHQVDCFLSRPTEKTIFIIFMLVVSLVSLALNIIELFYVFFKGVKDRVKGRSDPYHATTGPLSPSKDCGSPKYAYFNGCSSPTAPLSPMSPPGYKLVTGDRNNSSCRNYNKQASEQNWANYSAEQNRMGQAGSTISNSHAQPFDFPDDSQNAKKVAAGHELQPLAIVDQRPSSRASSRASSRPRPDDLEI
T2 sequence (P17302 2-382): as the sequence (P23242 2-382) above, with E123D, V163I, R242K, T250S, P252A, S256A, P262Q, S340N, A343S, V346L counted along it

B1: ALMB-0168 (antibody, V domains shown)
VH: EVQLVQSGAEVKKPGASVKVSCKASGYTFTSYYMYWVRQAPGQGLEWIGGINPSNAGTNFNEKFKNRATLTVDKSTSTAYMELSSLRSEDTAVYYCTREGNPYYTMNYWGQGTLVTVSS
VL: DVVMTQSPLSLPVTIGQPASISCKSSQSLLESDGKTYLNWLQQRPGQSPRRLIYLVSKLDSGVPDRFSGSGSGTDFTLKISRVEAEDVGVYYCWQGTHFPWTFGGGTKVEIKR
notes: also called anti-Cx43 antibody
[1]
  EC50 of Cx43 hemichannel opening, EB staining, MOL-Y4 cells: 2.33 mg/L
  plasma ATP level in mice, luciferin/luciferase assay, against saline-treated mice: > 5 fold
[2]
  EC50 of Cx43 hemichannel opening, EB staining, human osteocytes: 3.97 mg/L
[3]
  EC50: 41 mg/L
[4]
  EC50: 37.3 mg/L
